The results in this text go back to paper PMC5130018 (2016).

First the molecules themselves.
B1: WH-biotin (peptide WH with GGGK-biotin at the carboxyl terminal) [modified: biotin on the C-terminal lysine (GGGK-biotin); biotin on the C-terminal lysine (GGGK-biotin)] / mouse Clec9a expressed on HEK-293T cells (pIRES2-EGFP-mClec9a) … (parent complex)
chain 1: WPRFHSSVFHTHGGGK
chain 2: MHAEEIYTSLQWDIPTSEASQKCQSPSKCSGAWCVVTMISCVVCMGLLATSIFLGIKFFQVSSLVLEQQERLIQQDTALVNLTQWQRKYTLEYCQALLQRSLHSGTDASTGPVLLTSPQMVPQTLDSKETGSDCSPCPHNWIQNGKSCYYVFERWEMWNISKKSCLKEGASLFQIDSKEEMEFISSIGKLKGGNKYWVGVFQDGISGSWFWEDGSSPLSDLLPAERQRSAGQICGYLKDSTLISDKCDSWKYFICEKKAFGSCI

In this experiment the parent is B1. In words: flow cytometry on cells; parent: 49.6.
For chain 2 MHAEEIYTSLQWDIPTSEASQKCQSPSKCSGAWCVVTMISCVVCMGLLATSIFLGIKFFQVSSLVLEQQERLIQQDTALVNLTQWQRKYTLEYCQALLQRSLHSGTDASTGPVLLTSPQMVPQTLDSKETGSDCSPCPHNWIQNGKSCYYVFERWEMWNISKKSCLKEGASLFQIDSKEEMEFISSIGKLKGGNKYWVGVFQDGISGSWFWEDGSSPLSDLLPAERQRSAGQICGYLKDSTLISDKCASWKYFICEKKAFGSCI [chain 2 D248A], the response is 11.3 % of cells in upper-right quadrant (SA+ EGFP+). Then chain 2 MHAEEIYTSLQWDIPTSEASQKCQSPSKCSGAWCVVTMISCVVCMGLLATSIFLGIKFFQVSSLVLEQQERLIQQDTALVNLTQWQRKYTLEYCQALLQRSLHSGTDASTGPVLLTSPQMVPQTLDSKETGSDCSPCPHNWIQNGKSCYYVFERAEMWNISKKSCLKEGASLFQIDSKEEMEFISSIGKLKGGNKYWVGVFQDGISGSWFWEDGSSPLSDLLPAERQRSAGQICGYLKDSTLISDKCDSWKYFICEKKAFGSCI [chain 2 W155A], with 52.5 % of cells in upper-right quadrant (SA+ EGFP+); and chain 2 MHAEEIYTSLQWDIPTSEASQKCQSPSKCSGAWCVVTMISCVVCMGLLATSIFLGIKFFQVSSLVLEQQERLIQQDTALVNLTQWQRKYTLEYCQALLQRSLHSGTDASTGPVLLTSPQMVPQTLDSKETGSDCSPCPHNWIQNGKSCYYVFEAWEMWNISKKSCLKEGASLFQIDSKEEMEFISSIGKLKGGNKYWVGVFQDGISGSWFWEDGSSPLSDLLPAERQRSAGQICGYLKDSTLISDKCDSWKYFICEKKAFGSCI [chain 2 R154A], with 69.6 % of cells in upper-right quadrant (SA+ EGFP+).

chain 2 MHAEEIYTSLQWDIPTSEASQKCQSPSKCSGAWCVVTMISCVVCMGLLATSIFLGIKFFQVSSLVLEQQERLIQQDTALVNLTQWQRKYTLEYCQALLQRSLHSGTDASTGPVLLTSPQMVPQTLDSKETGSDCSPCPHNWIQNGKSCYYVFERWEAWNISKKSCLKEGASLFQIDSKEEMEFISSIGKLKGGNKYWVGVFQDGISGSWFWEDGSSPLSDLLPAERQRSAGQICGYLKDSTLISDKCDSWKYFICEKKAFGSCI [chain 2 M157A]: the response was 74.2 % of cells in upper-right quadrant (SA+ EGFP+). With chain 2 MHAEEIYTSLQWDIPTSEASQKCQSPSKCSGAWCVVTMISCVVCMGLLATSIFLGIKFFQVSSLVLEQQERLIQQDTALVNLTQWQRKYTLEYCQALLQRSLHSGTDASTGPVLLTSPQMVPQTLDSKETGSDCSPCPHNWIQNGKSCYYVFERWEMWNISKKSCLKEGASLFQIDSKEEMEFISSIGKLKGGNKYWVGVFQDGISGSWFWEDGSSPLSDLLPAERQRSAGQICGYLKDSTLISDKCDSWKAFICEKKAFGSCI [chain 2 Y252A] the figure was 45.4 % of cells in upper-right quadrant (SA+ EGFP+). With chain 2 MHAEEIYTSLQWDIPTSEASQKCQSPSKCSGAWCVVTMISCVVCMGLLATSIFLGIKFFQVSSLVLEQQERLIQQDTALVNLTQWQRKYTLEYCQALLQRSLHSGTDASTGPVLLTSPQMVPQTLDSKETGSDCSPCPHNWIQNGKSCYYVFERWEMWNASKKSCLKEGASLFQIDSKEEMEFISSIGKLKGGNKYWVGVFQDGISGSWFWEDGSSPLSDLLPAERQRSAGQICGYLKDSTLISDKCDSWKYFICEKKAFGSCI [chain 2 I160A] the figure was 50.6 % of cells in upper-right quadrant (SA+ EGFP+). Then chain 2 MHAEEIYTSLQWDIPTSEASQKCQSPSKCSGAWCVVTMISCVVCMGLLATSIFLGIKFFQVSSLVLEQQERLIQQDTALVNLTQWQRKYTLEYCQALLQRSLHSGTDASTGPVLLTSPQMVPQTLDSKETGSDCSPCPHNWIQNGKSCYYVFERWEMWNISKKSCLKEGASLFQIDSKEEMEFISSIGKLKGGNKYWVGVFQDGISGSWFWEDGSSPLSDLLPAERQRSAGQICGYLKDSTLISDKCDSAKYFICEKKAFGSCI [chain 2 W250A], with 7.85 % of cells in upper-right quadrant (SA+ EGFP+).
